# Experimental data: patent publication US9274129B2, “Methods and reagents for detecting bioactive lipids” (Lpath, Inc., priority 2006, dated 2016)
# Entries after “also recorded” stand apart in the source; their conditions may differ.
# Tests used:
# SKOV3 cells = test: Taxol-induced apoptosis (caspase activity); type: cell-based, human; details: Taxol 0.5 mM, 24 h
# Protocol: The ability of LPA to protect ovarian tumor cells against apoptosis when exposed to clinically-relevant levels of the chemotherapeutic agent, paclitaxel (Taxol) was investigated. SKVO3 cells were treated with 1% FBS (S), Taxol (0.5 mM), +/−anti-LPA mAbs for 24 h. […] Apoptosis was assayed by measurement of the caspase activity as recommended by the manufacturer (Promega). As anticipated, LPA protected most of the cancer cell lines tested from taxol-induced cell death. […] Moreover, the anti-LPA antibody was able to remove the protection provided by serum. Serum is estimated to contain about 5-20 mM LPA. […] Taxol-induced caspase activation was enhanced by the addition of all 3 of the anti-LPA mAbs to the culture medium.
# [1] = Direct ELISA on S1P-coated plates, chimeric antibody and mutants; type: binding; details: antibody 0.1 ug/ml
# Protocol: Microtiter ELISA plates (Costar) were coated overnight with S1P diluted in 1 M Carbonate Buffer (pH 9.5) at 37° C. for 1 hr. Plates were washed with PBS (137 mM NaCl, 2.68 mM KCl, 10.1 mM Na2HPO4, 1.76 mM KH2PO4; pH 7.4) and blocked with PBS/BSA/Tween-20 for 1 hr at room temp or overnight at 4° C. For the primary incubation (1 hr at room temp.), a standard curve using the anti-S1P mAb and the samples to be tested for binding was built using the following set of dilutions: 0.4 μg/mL, 0.2 μg/mL, 0.1 μg/mL, 0.05 μg/mL, 0.0125 μg/mL, and 0 μg/mL, and 100 μl added to each well. Plates were washed and incubated with 100 μl per well of HRP conjugated goat anti-mouse (1:20,000 dilution) (Jackson Immuno Research) or HRP conjugated goat anti-human (H+L) diluted 1:50,000 (Jackson Immuno Research) for 1 hr at room temperature. After washing, the enzymatic reaction was detected with tetramethylbenzidine (Sigma) and stopped by adding 1 M H2SO4. The optical density (OD) was measured at 450 nm using a Thermo Multiskan EX. Raw data were transferred to GraphPad software for analysis.
# The chromogenic reaction was measured and reported as Optical density (OD). The concentration of the panel of antibodies was 0.1 ug/ml. No interaction of the second antibody with S1P-coated matrix alone was detected.
# [2] = tested on: selected human cancer cell lines; test: LPA-induced cancer cell proliferation; type: cell-based; details: LPA 0.01 mM to 10 mM, 7 human-derived and one rat-derived line, dose dependent
# Protocol: LPA is a potent growth factor supporting cell survival and proliferation by stimulation of Gi, Gq and G12/13 via GPCR-receptors and activation of downstream signaling events. Cell lines were tested for their proliferative response to LPA ([…]). Cell proliferation was assayed by using the cell proliferation assay kit from Chemicon (Temecula Calif.) (Panc-1) and the Cell-Blue titer from Pierce (Caki-1). Each data point is the mean of three independent experiments. […] Even though tumor-derived cells normally have high basal levels of proliferation, LPA appears to further augment proliferation in most tumor cell lines. Anti-LPA mAbs (B7 and B58) were assessed for the ability to inhibit LPA-induced proliferation in selected human cancer cell lines.
# Caki-1 cells = test: In vitro IL-8 production, Caki-1; type: cell-based, human; details: 18:1 LPA 0.2 mM, 24 h, cells without mAb
# Protocol: Three anti-LPA mAbs (B3, B7 and B58) were tested for their abilities to reduce in vitro IL-8 production compared to a non-specific antibody (NS). Caki-1 cells were seeded in 96 well plates and grown to confluency. After overnight serum starvation, cells were treated with 18:1 LPA (0.2 mM) with or without anti-LPA mAb B3, B7, B58 or NS (Non-Specific). After 24 h, cultured supernatants of renal cancer cells (Caki-1), treated with or without LPA and in presence of increasing concentrations of the anti-LPA mAbs B3, B7 and B58, were collected and analyzed for IL-8 levels using a commercially available ELISA kit (Human Quantikine Kit, R&D Systems, Minneapolis, Minn.). […] Similar results were obtained with the other well-known pro-angiogenic factor, VEGF. The inhibition of IL-8 release by the anti-LPA mAbs was also observed in other cancerous cell lines such as the pancreatic cell line Panc-1.
# [3] = Competitive ELISA of anti-S1P mAb, competitor SPC; type: binding
# Protocol: (§1) Screening of serum and cell supernatant for SIP-specific antibodies was by direct ELISA using the thiolated S1P analog described in Example 1 (i.e., compound 10) as the antigen. A standard ELISA was performed, as described below, except that 50 ul of sample (serum or cell supernatant) was diluted with an equal volume of PBS/0.1% Tween-20 (PBST) during the primary incubation. ELISAs were performed in 96-well high binding ELISA plates (Costar) coated with 0.1 μg of chemically-synthesized compound 10 conjugated to BSA in binding buffer (33.6 mM Na2CO3, 100 mM NaHCO3; pH 9.5). The thiolated-S1P-BSA was incubated at 37° C. for 1 hr. at 4° C. overnight in the ELISA plate wells. The plates were then washed four times with PBS (137 mM NaCl, 2.68 mM KCl, 10.14 mM Na2HPO4, 1.76 mM KH2PO4; pH 7.4) and blocked with PBST for 1 hr. at room temperature. For the primary incubation step, 75 uL of the sample (containing the S1P to be measured), was incubated with 25 uL of 0.1 ug/mL anti-S1P mAb diluted in PBST and added to a well of the ELISA plate. […] Optical density of the samples was determined by measurement at 450 nm using an EL-X-800 ELISA plate reader (Bio-Tech).
# (§2) For cross reactivity, a competitive ELISA was performed as described above, except for the following alterations (FIG. 4). […] Biotin incorporation was determined as per kit protocol and ranged from 7 to 11 biotin molecules per antibody. […]
# [4] = Competitive ELISA of anti-S1P mAb, competitor S1P; type: binding
# Protocol: as §1, §2
# [5] = Competitive ELISA of anti-S1P mAb, competitor C1P; type: binding
# Protocol: as §1, §2
# [6] = Competitive ELISA of anti-S1P mAb, competitor DH-S1P; type: binding
# Protocol: as §1, §2
# [7] = ELISA with exchanged crosslinker or protein carrier in the laydown material; type: binding
# Description: For example, the normal crosslinker SMCC was exchanged for IOA in conjugating the thiolated-S1P to BSA as the laydown material in the ELISA. […] Similarly, KLH was exchanged for BSA as the protein that was complexed with thiolated-S1P as the laydown material.
# [8] = Competitive ELISA of anti-S1P mAb, competitor LPA; type: binding
# Protocol: as §1, §2
molecule,measurement,setting,value
"CC(=O)O[C@H]1C(=O)[C@@]2(C)[C@H]([C@H](OC(=O)c3ccccc3)[C@]3(O)C[C@H](OC(=O)[C@H](O)[C@@H](NC(=O)c4ccccc4)c4ccccc4)C(C)=C1C3(C)C)[C@]1(OC(C)=O)CO[C@@H]1C[C@@H]2O [Taxol, paclitaxel]","caspase-3,7 activation",SKOV3 cells,"induced caspase-3,7 activation"
CysPhe,Binding,[1],2 OD
MetLeu,Binding,[1],1.6 OD
lysophosphatidic acid [LPA],proliferation of tumor cell lines,[2],increased proliferation
same,increase of IL-8 expression,Caki-1 cells,100%
"anti-S1P mAb: murine monoclonal antibody directed against S1P from hybridoma clone 306D326.26 (ATCC SD-5362) (antibody, listed as Mus musculus, V domains shown) VH: QAHLQQSDAELVKPGASVKISCKVSGFIFIDHTIHWMKQRPEQGLEWIGCISPRHDITKYNEMFRGKATLTADKSSTTAYIQVNSLTFEDSAVYFCARGGFYGSTIWFDFWGQGTTLTVS VL: ETTVTQSPASLSMAIGEKVTIRCITTTDIDDDMNWFQQKPGEPPNLLISEGNILRPGVPSRFSSSGYGTDFLFTIENMLSEDVADYYCLQSDNLPFTFGSGTKLEIK",competition by SPC for mAb binding to S1P on the plate,[3],somewhat reduced; also recorded: only slightly competes for binding
same,competition by free S1P for mAb binding to S1P on the plate,[4],can compete for binding
same,distinction of thiolated-S1P analog (compound 10) from natural S1P,[4],unable to distinguish
same,antibody binding to C1P,[5],no antibody binding was observed
same,competition by free DH-S1P for mAb binding to S1P on the plate,[6],can compete for binding
same,binding characteristics with KLH exchanged for BSA as carrier,[7]; laydown thiolated-S1P complexed with protein,no significant difference
same,binding characteristics with IOA instead of SMCC as crosslinker,"[7]; laydown thiolated-S1P conjugated to BSA, compared with BSA-SMCC-thiolated-S1P",nearly identical
same,antibody binding to LPA,[8],no binding
